Source: paper PMC9415858
Several values for one entry are separate records, joined by “and”; a condition that tells them apart may be missing. Identical values can stand only once.

Molecular target: His-Tagged FcRn (UniProt P55899)
Experiment: SPR; His-tagged FcRn captured on an anti-His IgG1 antibody CM5 chip; antibody samples as analyte at 15, 5 and 1.66 nM in HBS-EP pH 6.0, 30 µL/min, 22 °C; steady-state model (the same data also fitted with a two-state model); mean of at least 5 measurements

Chain of UniProt P55899 (P55899 24-297): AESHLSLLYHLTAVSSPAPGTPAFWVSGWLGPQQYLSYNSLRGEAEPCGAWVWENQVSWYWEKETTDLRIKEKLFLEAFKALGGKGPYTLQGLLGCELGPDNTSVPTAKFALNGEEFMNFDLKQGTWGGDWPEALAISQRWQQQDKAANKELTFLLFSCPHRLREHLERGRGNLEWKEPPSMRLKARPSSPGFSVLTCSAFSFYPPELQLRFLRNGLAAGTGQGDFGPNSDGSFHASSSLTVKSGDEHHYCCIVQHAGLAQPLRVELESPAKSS

“Avastin (unfractionated innovator product) (antibody)” was tested. Which Kd did it give?
Its Kd is 25 nM and 22.7 nM.
